Assay results: patent US20160340683A1, “NANOCARRIER BASED PLANT TRANSFECTION AND TRANSDUCTION” (HER MAJESTY THE QUEEN IN RIGHT OF CANADA AS REPRESENTED BY …, priority 2007, published 2016)

System: isolated microspores of Triticale (variety Sunray)
Test: CPP delivery of GUS enzyme into isolated microspores, GUS staining
Format: cell-based
Conditions: GUS enzyme cargo:CPP 1:4, 1 hour at 37° C., three repeats
Description: Triticale line Sunray grown in a growth cabinet with a photoperiod of 19 h day (intensity 300 μE m-2 s-1), and temperature 18-15° C. (day-night) with a relative humidity at about 70% was used as the donor plant material. The plants were fertilized every 2 weeks (20-20-20, 200 ppm) and treated with 2.5 ml I-1 Tilt™ (propiconazole, Syngenta) during the tillering stage and Intercept™ (0.004 g per litre of soil, Imidacloprid, Bayer) once sufficient root development was established. The first 10 tillers from each pot were harvested when the spike was at 3-4 cm, depending on the crop, from emergence from the boot. These tillers (to be used for microspore isolation) were subjected to pre-treatment in a refrigerator (4° C.) for 21 days with their bases in distilled water and their heads wrapped in aluminum foil. After 21±3 days of pre-treatment, the spikes were excised from their tillers and after an evaluation of their general appearance, only the most homogenous spikes were used. After confirming microspores at mid to bi-nucleate stage from a median floret, using acetocarmine staining, the tillers were processed for extraction.
Awns were removed with scissors in a laminar flow hood. […] After counting the cells using a haemocytometer, aliquots of 100,000 cells in 200 μl volume were prepared in 2 ml microcentrifuge tubes to be ready for transduction. […]

B1: Gus protein: β-Glucuronidase (GUS; Sigma Aldrich, Escherichia coli Type VII-A), cargo used alone (protein, UniProt P05804 1-603, looked up)
Beta-glucuronidase: MLRPVETPTREIKKLDGLWAFSLDRENCGIDQRWWESALQESRAIAVPGSFNDQFADADIRNYAGNVWYQREVFIPKGWAGQRIVLRFDAVTHYGKVWVNNQEVMEHQGGYTPFEADVTPYVIAGKSVRITVCVNNELNWQTIPPGMVITDENGKKKQSYFHDFFNYAGIHRSVMLYTTPNTWVDDITVVTHVAQDCNHASVDWQVVANGDVSVELRDADQQVVATGQGTSGTLQVVNPHLWQPGEGYLYELCVTAKSQTECDIYPLRVGIRSVAVKGEQFLINHKPFYFTGFGRHEDADLRGKGFDNVLMVHDHALMDWIGANSYRTSHYPYAEEMLDWADEHGIVVIDETAAVGFNLSLGIGFEAGNKPKELYSEEAVNGETQQAHLQAIKELIARDKNHPSVVMWSIANEPDTRPQGAREYFAPLAEATRKLDPTRPITCVNVMFCDAHTDTISDLFDVLCLNRYYGWYVQSGDLETAEKVLEKELLAWQEKLHQPIIITEYGVDTLAGLHSMYTDMWSEEYQCAWLDMYHRVFDRVSAVVGEQVWNFADFATSQGILRVGGNKKGIFTRDRKPKSAAFLLQKRWTGMNFGEKPQQGGKQ
- Average Transduction Efficiency: not capable of transducing itself
